Results on two molecules are retold here after publication PMC5994690, “Virulence Associated Gene 8 of Bordetella pertussis Enhances Contact System Activity by Inhibiting the Regulatory Function of Complement Regulator C1 Inhibitor” (Frontiers in Immunology, 2018).

To fix the notation:
B1: Full length complement regulator C1 inhibitor (C1-INHFL), serum-derived (natural protein, UniProt P05155 23-500, looked up)
chain: NPNATSSSSQDPESLQDRGEGKVATTVISKMLFVEPILEVSSLPTTNSTTNSATKITANTTDEPTTQPTTEPTTQPTIQPTQPTTQLPTDSPTQPTTGSFCPGPVTLCSDLESHSTEAVLGDALVDFSLKLYHAFSAMKKVETNMAFSPFSIASLLTQVLLGAGENTKTNLESILSYPKDFTCVHQALKGFTTKGVTSVSQIFHSPDLAIRDTFVNASRTLYSSSPRVLSNNSDANLELINTWVAKNTNNKISRLLDSLPSDTRLVLLNAIYLSAKWKTTFDPKKTRMEPFHFKNSVIKVPMMNSKKYPVAHFIDQTLKAKVGQLQLSHNLSLVILVPQNLKHRLEDMEQALSPSVFKAIMEKLEMSKFQPTLLTLPRIKVTTSQDMLSIMEKLEFFDFSYDLNLCGLTEDPDLQVSAMQHQTVLELTETGVEAAAASAISVARTLLVFEVQQPFLFVLWDQQHKFPVFMGRVYDPRA
modifications: glycosylated (58 kDa protein/28 kDa sugar by SEC-MALS)
notes: Purified from serum (Complement Technology/Complement Technologies, Tyler, TX); source: bought: Complement Technology (serum-derived)
B2: Recombinant his-tag passenger domain of virulence associated gene 8 (Vag8) of Bordetella pertussis (domain or fragment)
chain: VTAAQRIDGGAAFLGDVAIATTKASEHGINVTGRTAEVRVTGGTIRTSGNQAQGLRVGTENAPDNTALGASVFLQNLIIETSGTGALGVSVHEPQGGGGTRLSMSGTTVRTRGDDSFALQLSGPASATLNDVALETAGQQAPAVVLWQGAQLNAQGLVVQVNGAGVSAIHAQDAGSFTLSGSDITARGLEVAGIYVQEGMQGTLTGTRVTTQGDTAPALQVEDAGTHVSMNGGALSTSGANSPAAWLLAGGSAQFRDTVLRTVGEASHGVDVAAHSEVELAHAQVRADGQGAHGLVVTRSSAMVRAGSLVESTGDGAAALLESGHLTVDGSVVHGHGAAGLEVDGESNVSLLNGARLSSDQPTAIRLIDPRSVLNLDIKDRAQLLGDIAPEAQQPDGSPEQARVRVALADGGTWAGRTDGAVHTVRLLDRGVWTVTGDSRVAEVKLEGGTLAFAPPAQPKGAFKTLVATQGISGTGTIVMNAHLPSGTADVLVAPQGFGDRQVLVVNNTDDGTESGATKVPLIEDEQGHTAFTLGNMGGRVDAGARQYELTASEAQADKARTWQLTPTNEL

Experiment [1] deals with B2. Briefly: SEC-MALS; S200 increase 10/300 column, 50 mM Tris pH 7.5, 150 mM NaCl, 0.4 mL/min; individual proteins and the complex. To be noted: both partners purified.
The target in experiment [2] is B1. As to the kind of experiment: SPR; Biacore T200; Vag8 passenger domain immobilised by amine coupling on a CM5 chip; C1-INH 2.5-160 nM injected at 30 µL/min; 25°C, 10 mM HEPES pH 7.4, 150 mM NaCl, 3 mM EDTA, 0.005% P20; dissociation 300 s. To be noted: both partners purified. (In general: In SPR one partner is held on a chip, and binding of the other changes the refractive index at the surface.)

A value given as a limit tells only on which side of the number the result lay.

For orientation: stoichiometry N means the number of molecules, sites or subunits per partner or assembly. Consider B1, for which the “stoichiometry N” value in experiment [1] came to 1.

As a reminder, the Kd is the free concentration of one partner at which half of the binding sites on the other are occupied at equilibrium, for simple one-to-one binding. As to B2, the Kd in experiment [2] was not above 1 nM.
